Assay results taken from patent publication EP4725966A1, “HUMAN EPIDERMAL GROWTH FACTOR 3 ANTIBODY, PREPARATION METHOD THEREFOR, AND USE THEREOF” (priority 2023, dated 2024).
Changes are numbered by the printed parent chain.

B1: mHE1 (antibody, V domains shown)
VH: EVKLQESGPGLVKPSQSLSLTCSVTGYSITSGYYWNWIRQFPGNKLEWMGYISYDGSNNYNPSLKNRISITRDTSKNQFFLNLNSVTTEDTATYYCARVDWDGDAMDYWGQGTSVTVSS
VL: DIVLTQSPASLAVSLGQRATISCRASESVDNYGIRLMHWYQQKSGQPPKLLIHRASNLESGIPARFSGSGSRTDFTLTINPVETDDVATYYCQQSNKDPFTFGSGTKLEIKR
B2: mHE2 (antibody, V domains shown)
VH: B1 VH with N82K, V99M
VL: B1 VL with R35S, S44P, H53Y, F100P, S104A, I110L
B3: mHE5 (antibody, V domains shown)
VH: B1 VH with K3Q, N82K, R98S, V99Y, W101Y, A105W, M106F, D107A, S114L, S119A
VL: B1 VL with N31H, I34S, R35S, L36F, S44P, H53Y, L58P, F100P, S104G
B4: mHE4 (antibody, V domains shown)
VH: EVQLVESGGGLVKPGGSLKLSCAASGFTFSSYVMSWVRQTPEKRLEWVATISDGDSSTYYPDNVKGRFTISRDNAKNNLFLQMSHLKSEDTAMYFCARDKGHGYDEGAFVYWGQGTLVTVSA
VL: DIQMTQSPASLSASVEETVTITCRASENIYSYLAWYQQKQGKSPQLLVYNAKTLAEGVPSRFSGSGSGTEFSLKINSLQPEDFGSYYCQNHYGTPYTFGGGTKLEIKQ
B5: mHE6 (antibody, V domains shown)
VH: EVQLQQSGPDLVKPGTSVKMSCKASGYTFTDYYMHWVRQSHGKSLEWIGYINPNNGDAIYNQKFKGKATLTVNKSSTTAYMALRSLTSEDSAVYFCATYDYGGDFYFDVWGTGTTVTVSS
VL: DIELTQSPALMSASPGEKVTMTCSASSSVSYMYWYQQKPRSSPKPWIYLTSNLASGVPARFSGSGSGTSYSLTISSMEAEDAATYYCQQWSRNPLTFGAGTKLELKR

target: cynomolgus HER3-ECD-His (cynomolgus monkey) (UniProt G7PIG5); assay: ELISA on coated Cyno HER3
Sequence (G7PIG5 entry or part of it): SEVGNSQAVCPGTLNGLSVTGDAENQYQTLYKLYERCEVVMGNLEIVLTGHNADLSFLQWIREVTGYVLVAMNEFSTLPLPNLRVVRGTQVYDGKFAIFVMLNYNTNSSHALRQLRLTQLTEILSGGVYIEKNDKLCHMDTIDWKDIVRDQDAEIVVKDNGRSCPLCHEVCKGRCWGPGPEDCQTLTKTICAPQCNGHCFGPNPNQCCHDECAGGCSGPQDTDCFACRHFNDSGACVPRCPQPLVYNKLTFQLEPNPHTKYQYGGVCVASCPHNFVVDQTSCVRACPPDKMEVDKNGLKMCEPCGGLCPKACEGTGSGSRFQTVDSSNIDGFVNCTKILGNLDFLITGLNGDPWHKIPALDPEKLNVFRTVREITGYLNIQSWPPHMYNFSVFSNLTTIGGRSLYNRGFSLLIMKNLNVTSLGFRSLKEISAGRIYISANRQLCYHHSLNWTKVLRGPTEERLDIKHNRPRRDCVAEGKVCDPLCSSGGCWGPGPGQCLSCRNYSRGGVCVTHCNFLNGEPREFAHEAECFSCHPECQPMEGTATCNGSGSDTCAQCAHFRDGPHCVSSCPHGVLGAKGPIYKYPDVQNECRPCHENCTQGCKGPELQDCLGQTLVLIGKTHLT

OD450 [OD450] | Binder
1.77 | B1
1.77 | B2
1.82 | B3
1.87 | B4
1.51 | B5

target: human HER3 on cells (human) (UniProt P21860); assay: FACS on Human HER3-CHO cells

MFI [MFI] | Binder
173 | B1
195 | B2
224 | B3
199 | B4
205 | B5

target: human HER3-ECD-His (human) (UniProt P21860); assay: ELISA on coated human HER3

OD450 [OD450] | Binder
1.86 | B1
1.96 | B2
1.9 | B3
2.07 | B4
2.12 | B5
